Square brackets hold non-standard residues; d marks the D form. Ends that are not written are not given here.

For experiment [1], the target named is T1, His-JNK1 (ref 14-327, Upstate) (UniProt P45983 1-384). In words: kinase inhibition.
For experiment [2], the target named is T2, His-JNK3 (ref 14-501, Upstate) (UniProt P53779 1-422). In words: kinase inhibition.
Experiment [3] concerns the target T1, His-JNK1 (ref 14-327, Upstate). In words: JNK inhibition assay.
For experiment [4], the target named is T2, His-JNK3 (ref 14-501, Upstate). In words: JNK inhibition assay.

T2 sequence (P53779 other isoform, or with tags, fused parts or gaps): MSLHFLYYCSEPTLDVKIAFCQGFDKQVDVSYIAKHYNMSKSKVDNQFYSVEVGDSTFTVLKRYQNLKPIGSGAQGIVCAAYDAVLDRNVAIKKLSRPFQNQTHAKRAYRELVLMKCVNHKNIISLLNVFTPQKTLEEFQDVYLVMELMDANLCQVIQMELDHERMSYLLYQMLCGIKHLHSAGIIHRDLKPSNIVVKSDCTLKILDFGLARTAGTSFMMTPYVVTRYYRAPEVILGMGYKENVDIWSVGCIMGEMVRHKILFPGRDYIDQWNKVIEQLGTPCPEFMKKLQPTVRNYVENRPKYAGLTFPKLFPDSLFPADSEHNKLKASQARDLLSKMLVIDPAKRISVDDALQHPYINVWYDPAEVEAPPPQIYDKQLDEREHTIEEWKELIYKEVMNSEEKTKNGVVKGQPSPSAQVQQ
T1 sequence (P45983 other isoform, or with tags, fused parts or gaps): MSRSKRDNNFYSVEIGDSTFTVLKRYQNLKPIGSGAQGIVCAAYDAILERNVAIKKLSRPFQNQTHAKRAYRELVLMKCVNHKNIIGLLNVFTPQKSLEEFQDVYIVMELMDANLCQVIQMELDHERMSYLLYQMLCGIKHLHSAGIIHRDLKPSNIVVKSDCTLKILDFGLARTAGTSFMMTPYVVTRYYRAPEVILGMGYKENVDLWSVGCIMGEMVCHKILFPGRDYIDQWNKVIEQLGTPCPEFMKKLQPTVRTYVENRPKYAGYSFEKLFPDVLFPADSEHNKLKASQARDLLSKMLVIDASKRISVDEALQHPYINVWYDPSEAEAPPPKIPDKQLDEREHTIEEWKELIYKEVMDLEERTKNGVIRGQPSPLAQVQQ

What is called IC50 is the concentration that inhibits the measured activity by half. Take [dR]KKR[dR]QRR[dR]GKRKAL[dR]L[dF] [SEQ ID NO: 189]: the IC50 in experiment [1] was 22300 nM; in experiment [2], 128 nM. As to GRKKRRQRRRPTTLNLFPQVPRSQD [SEQ ID NO: 195], the IC50 in experiment [1] is 10.8 nM; in experiment [2], 4.92 nM. Consider [dR]KKR[dR]QR[dR]RPTDL[dR]L[dW] [SEQ ID NO: 181], for which the IC50 came to 294 nM in experiment [1] and 47.6 nM in experiment [2].

Turning to [dR]KKR[dR]QRR[dR]RKAL[dR]L[dF] [SEQ ID NO: 190], the IC50 in experiment [1] worked out at 8970 nM; in experiment [2], 159 nM. On to [dR]KKR[dR]QR[dR]KRP[dA]TLNL[dF] [SEQ ID NO: 184], for which the values for the IC50 in experiment [1] and in experiment [2] were 2430 nM and 129 nM, respectively.

Take [dR]KKR[dR]QRR[dR]RP[dA]TLNL[dF] [SEQ ID NO: 182]: the IC50 in experiment [1] is 1680 nM; in experiment [2], 59.4 nM. In the case of [dR]KKR[dR]QRR[dR]RP[dK]AA[dA]AANA[dF] [SEQ ID NO: 200], the IC50 in experiment [2] turned out to be 3820 nM. On to RKKRRQRRR [SEQ ID NO: 46], for which the IC50 in experiment [2] came to 8130 nM. Take [dR]KKR[dR]QRR[dR]RP[dK]RPTDLNL[dF] [SEQ ID NO: 177]: the IC50 in experiment [1] worked out at 355 nM; in experiment [2], 45.4 nM. Taken in the same sequence, the figures for RKKRRQRRRRPKRPATLNLF [SEQ ID NO: 172] were 722 nM and 102 nM. For [dR]KKR[dR]QRR[dR]GKRKALKL[dF] [SEQ ID NO: 188], the IC50 in experiment [1] was 1420 nM; in experiment [2] it was 36.1 nM. Turning to [dR]KKR[dR]QRR[dR]RPTTL[dR]L[dW] [SEQ ID NO: 178], the IC50 in experiment [1] is 329 nM; in experiment [2] it was 30.4 nM. Take [dR]KKR[dR]QRR[dR]RP[dK]RP[dQ]TLNL[dF] [SEQ ID NO: 186]: the IC50 in experiment [1] was 1020 nM; in experiment [2], 44.2 nM.

For the molecule [dR]KKR[dR]QRR[dR]RP[dK]RPTTLNL[dW] [SEQ ID NO: 176], the IC50 in experiment [1] is 131 nM; in experiment [2], 22.4 nM.

For the molecule [dR]KKR[dR]QRR[dR]RPTDL[dR]L[dW] [SEQ ID NO: 180], the IC50 in experiment [1] was found to be 265 nM; in experiment [2] it was 47 nM.

With [dR]KKR[dR]QR[dR]RPTTLNL[dF] [SEQ ID NO: 175], the values for the IC50 in experiment [1] and in experiment [2] were 185 nM and 60.6 nM, respectively. Taken in the same sequence, the figures for [dR]KKR[dR]QRR[dR]RPTTLNL[dF] [SEQ ID NO: 174] were 334 nM and 63.1 nM. For the molecule [dR]KKR[dR]QR[dR]RP[dA]TLNL[dF] [SEQ ID NO: 183], the values for the IC50 in experiment [1] and in experiment [2] were 2590 nM and 199 nM, respectively. With [dR]KKR[dR]QRR[dR]RP[dK]RP[dK]TLNL[dF] [SEQ ID NO: 187], the IC50 in experiment [1] was 594 nM; in experiment [2], 25.4 nM. Consider RPKRPTTL[dR]LF [SEQ ID NO: 6], for which the results for the IC50 in experiment [3] and in experiment [4] were 90.5 nM and 120 nM, respectively. Turning to [dR]KKR[dR]QR[dR]RPTTL[dR]L[dW] [SEQ ID NO: 179], the IC50 in experiment [1] turned out to be 249 nM; in experiment [2], 45.7 nM.

On to [dR]KKR[dR]QRR[dR]RP[dK]RPTTL[dR]L[dF] [SEQ ID NO: 173], for which the values for the IC50 in experiment [1] and in experiment [2] were 88.4 nM and 16.8 nM, respectively. Taken in the same sequence, the figures for GRKKRRQRRRPPKRPTTLNLFPQVPRSQD [SEQ ID NO: 194] were 14 nM and 2.59 nM.

Consider [dR]KKR[dR]QRR[dR]RP[dK]RP[dS]TLNL[dF] [SEQ ID NO: 185], for which the results for the IC50 in experiment [1] and in experiment [2] were 766 nM and 35.5 nM, respectively.

Source of the values: patent US20160115200A1 (published 2016).
